Publication PMC8399745, “Nanostructured Lipid Carriers (NLCs) for Oral Peptide Drug Delivery: About the Impact of Surface Decoration” (Pharmaceutics, 2021)

Assay: Log P octanol/water of INS and INS-SDS complexes
Type: physicochemical
Conditions: shake-flask octanol/water (1:1), 1 mg in 1 mL, 37 °C, 500 rpm, 12 h, centrifugation, INS quantified in each phase by HPLC (214 nm); means, n = 3
Protocol: Log Poctanol/water of INS and INS-SDS complexes was determined using a previously described method with minor modification. Briefly, 1 mg of each product was added to 1 mL of octanol/water (1:1) (Sigma-Aldrich Chemie GmbH, Vienna, Austria). The mixtures were incubated at 37 °C while stirring at 500 rpm for 12 h. Thereafter, samples were centrifuged at 13,400 rpm for 10 min. Aliquots of 100 μL were withdrawn from each phase (octanol and water) and analyzed via HPLC after dilution with 300 μL of methanol (Sigma-Aldrich Chemie GmbH, Vienna, Austria) containing 0.1% (v/v) TFA. Log P was calculated according to the following equation: Log P=Log(Concentration of INS in octanol phase/Concentration of INS in water phase)

Substance: Human recombinant insulin
- log Poctanol/water: −1.8
